These results are taken from PMC5364489, “Isolation and characterization of the E. coli membrane protein production strain Mutant56(DE3)”.

This series concerns the target wild-type T7 RNA polymerase (Enterobacteria phage T7 (gene from E. …, UniProt P00573 1-883)). In words: EMSA; 2.5 uM dsDNA; half-saturation compared only in figure, not a true Kd; 50 mM Tris acetate, 10 mM magnesium acetate, 50 mM sodium acetate (pH not stated), 25 °C, 30 min; 1.5% TAE agarose gel. Particulars: protein: recombinant; label: 5' ATTO488 on strand 1; blunt.

Chain of wild-type T7 RNA polymerase (Enterobacteria phage T7 (P00573 whole entry): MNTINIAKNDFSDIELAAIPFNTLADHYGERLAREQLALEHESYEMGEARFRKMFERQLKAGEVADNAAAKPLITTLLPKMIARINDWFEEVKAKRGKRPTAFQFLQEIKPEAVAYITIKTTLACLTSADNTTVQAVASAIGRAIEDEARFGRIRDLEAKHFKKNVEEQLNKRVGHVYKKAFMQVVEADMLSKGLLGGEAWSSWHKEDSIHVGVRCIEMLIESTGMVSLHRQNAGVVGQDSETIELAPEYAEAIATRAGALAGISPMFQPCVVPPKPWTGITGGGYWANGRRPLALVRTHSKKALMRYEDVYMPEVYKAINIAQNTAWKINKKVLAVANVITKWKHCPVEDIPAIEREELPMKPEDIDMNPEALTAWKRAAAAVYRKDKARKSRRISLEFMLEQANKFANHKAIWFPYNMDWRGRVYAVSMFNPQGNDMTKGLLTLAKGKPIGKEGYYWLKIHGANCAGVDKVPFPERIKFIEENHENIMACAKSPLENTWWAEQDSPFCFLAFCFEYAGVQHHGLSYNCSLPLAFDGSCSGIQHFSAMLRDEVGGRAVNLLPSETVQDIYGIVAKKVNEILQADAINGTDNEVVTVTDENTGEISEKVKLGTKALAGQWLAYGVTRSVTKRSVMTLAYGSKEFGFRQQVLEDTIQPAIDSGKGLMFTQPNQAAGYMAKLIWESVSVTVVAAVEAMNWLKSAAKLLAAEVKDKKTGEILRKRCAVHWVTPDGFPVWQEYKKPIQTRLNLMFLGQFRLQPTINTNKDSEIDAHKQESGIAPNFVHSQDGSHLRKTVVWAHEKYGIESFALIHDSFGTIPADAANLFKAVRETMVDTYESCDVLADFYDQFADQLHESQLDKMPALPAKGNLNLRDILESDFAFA

B1: T7 promoter dsDNA (dsDNA)
DNA 1: GCCAGTAATACGACTCACTATAGGG
DNA 2: CCCTATAGTGAGTCGTATTACTGGC
For the molecule B1, the binding result is given as “binds”.
